For assay [1], the target named is T1, human CEACAM5, recombinant (R&D Systems #4128-CM-050) (human, UniProt P06731 35-685).
T1 construct: Bought; coated in ELISA and used as monomeric analyte in Octet; also called hCEACAM-5; Human CEACAM5-His; not shown: His tag
T1 sequence (looked up): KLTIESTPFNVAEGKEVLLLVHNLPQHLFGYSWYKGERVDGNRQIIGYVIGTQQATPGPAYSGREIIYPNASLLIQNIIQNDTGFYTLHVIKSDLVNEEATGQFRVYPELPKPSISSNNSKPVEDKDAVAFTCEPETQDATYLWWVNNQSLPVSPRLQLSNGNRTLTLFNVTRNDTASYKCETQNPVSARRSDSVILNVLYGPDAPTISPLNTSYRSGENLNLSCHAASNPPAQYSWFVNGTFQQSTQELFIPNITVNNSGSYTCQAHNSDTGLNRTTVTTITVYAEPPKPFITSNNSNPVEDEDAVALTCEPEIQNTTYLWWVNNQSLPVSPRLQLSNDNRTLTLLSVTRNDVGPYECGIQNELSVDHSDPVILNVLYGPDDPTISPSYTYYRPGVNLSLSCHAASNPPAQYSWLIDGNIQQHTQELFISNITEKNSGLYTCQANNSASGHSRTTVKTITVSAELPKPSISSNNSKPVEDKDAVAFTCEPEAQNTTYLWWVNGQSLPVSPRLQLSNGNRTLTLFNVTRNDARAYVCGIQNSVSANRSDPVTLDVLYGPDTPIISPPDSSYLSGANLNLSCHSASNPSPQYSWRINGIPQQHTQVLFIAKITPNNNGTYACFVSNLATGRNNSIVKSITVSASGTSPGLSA
As to the kind of experiment: ELISA, antigen coated at 0.5 µg/mL, bsAb titrated, anti-human kappa-HRP, luminescence. As to the method: 96-well plates were coated with 0.5 μg/mL antigen, hCEACAM-1 (2244-CM-050, R&D Systems), hCEACAM-5 (4128-CM-050, R&D Systems), hCEACAM-6 (3934-CM-050, R&D Systems) or CEACAM-8 (9639-CM-050, R&D Systems) in PBS over night at 4° C. After washing in PBS/0.05% Tween 20 (PBST), the plates were blocked with PBST, 2% BSA for at least 30 minutes at room temperature before a second round of washing. RUBY bsAbs, diluted in PBST, 0.5% BSA, were then added and allowed to bind for at least 1 hour at room temperature. […] Finally, a final round of washing was performed and bound complexes detected using SuperSignal Pico Luminescent as substrate and luminescence signals were measured using Fluostar Optima.
In general terms: An ELISA detects its analyte on a solid surface through an enzyme-linked reagent.

Assay [2] addresses T1, human CEACAM5, recombinant (R&D Systems …). Kind of assay: Octet BLI, captured bsAb, monomeric CEACAM5 in solution, 1:1 fit. The method, then: (§1) Kinetic measurements were performed in the Octet RED96 platform using several different setups. […] Monomeric human CD40-His-Avi tag (Acro Biosystems #CD0-H5228), monomeric Human CEACAM5-His (R&D Systems #4128-CM-050) or monomeric Cynomolgus CEACAM5-His (Sino Biological #90891-C08H) were ½ serially diluted in 1× kinetic buffer (Sartorius) starting at 500 nM or 100 nM. […] Binding kinetics was studied in 1× kinetic buffer where association was allowed for 100 sec, 300 sec or 600 sec followed by dissociation for 100 sec, 300 sec or 3600 sec. Sensor tips were regenerated with 10 mM Glycine pH 1.7. Data generated were referenced by subtracting blank or parallel buffer blank, the baseline was aligned to the y-axis, inter-step correction by alignment against dissociation was performed and the data was smoothed by Savitzky-Golay filter in the data analysis software (v9.0.0.14). The processed data was fitted using a 1:1 Langmuir binding model with R² or X² as a measurement of fitting accuracy.
Association was measured for 100 sec and dissociation was measured for 100 sec.
In general terms: BLI is a label-free optical method that tracks binding on a fibre tip over time.

For assay [3], the target named is T2, biotinylated human CD40-mouse Fc (Ancell #504-030) (human, UniProt P25942 21-193, biotinylated (site not stated)).
T2 construct: Bought; also called hCD40-muIg; CD40mFc-biotin; not shown: mouse Ig Fc
Kind of assay: Octet BLI, captured CD40mFc-biotin, bsAb in solution, 1:1 fit. As to the method:
as §1
TABLE 12 Summary of kinetic profiles measured in Octet. Bispecific antibodies in solution (25-0.8 nM, 10-2 or 5-0.7 nM.) interacting with captured CD40mFc-biotin. Association was measured for 300 sec or 600 sec and dissociation was measured for 300 sec or 3600 sec

For assay [4], the target named is T3, human CEACAM1, recombinant (R&D Systems #2244-CM-050) (human, UniProt P13688 35-428).
T3 construct: also called hCEACAM-1
T3 sequence (looked up): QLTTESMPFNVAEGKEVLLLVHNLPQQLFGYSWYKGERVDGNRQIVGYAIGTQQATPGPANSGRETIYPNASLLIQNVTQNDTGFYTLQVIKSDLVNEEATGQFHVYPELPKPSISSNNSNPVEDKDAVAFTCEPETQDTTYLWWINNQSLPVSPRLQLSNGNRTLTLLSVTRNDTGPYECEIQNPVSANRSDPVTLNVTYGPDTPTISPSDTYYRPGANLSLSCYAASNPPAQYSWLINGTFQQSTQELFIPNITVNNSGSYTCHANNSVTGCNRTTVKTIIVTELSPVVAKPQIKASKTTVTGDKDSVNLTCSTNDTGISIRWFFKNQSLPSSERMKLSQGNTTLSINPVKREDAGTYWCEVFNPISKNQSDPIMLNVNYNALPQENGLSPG
As to the kind of experiment: ELISA, antigen coated at 0.5 µg/mL, IgG1 antibody at 10 µg/ml, anti-human kappa-HRP, luminescence. The method, then:
(§2) 96-well plates were coated with 0.5 μg/mL antigen, hCEACAM-5 (4128-CM-050, R&D Systems), hCEACAM-1 (2244-CM-050, R&D Systems), hCEACAM-6(3934-CM-050, R&D Systems) or CEACAM-8 (9639-CM-050, R&D Systems) in PBS over night at 4° C. After washing with PBS/0.05% Tween 20 (PBST), the plates were blocked with PBST, 2% BSA for at least 30 minutes at room temperature before a second round of washing. […] After washing, plates were incubated with 50 μl detection antibody (0.5 μg/ml HRP conjugated goat anti human-kappa light chain, #STAR127P, AbD Serotec). Finally, a final round of washing was performed and bound complexes detected using SuperSignal Pico Luminescent as substrate and luminescence signals were measured using Fluostar Optima.

The target in assay [5] is T1, human CEACAM5, recombinant (R&D Systems …). The description is as above. As to the method: as §2

Bounds are passed on as bounds.

One may read the EC50 (read off the curve) as the concentration needed to bring the measured effect to its halfway point. What is called Kd is the constant that tells how readily two partners part at equilibrium. A word on the koff: it is a measure of how fast the partners let go of each other. The kon is a measure of how fast the partners come together.

T2 sequence (P25942 21-193): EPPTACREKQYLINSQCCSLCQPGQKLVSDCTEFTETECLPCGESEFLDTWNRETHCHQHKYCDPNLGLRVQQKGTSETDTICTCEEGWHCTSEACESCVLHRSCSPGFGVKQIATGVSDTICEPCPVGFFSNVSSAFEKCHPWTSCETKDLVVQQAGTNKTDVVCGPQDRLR

B1: Multi48 (bispecific antibody)
heavy 1: not shown
light: DIQMTQSPSSLSASVGDRVTITCRASQSISSYLNWYQEKPGKAPKLLIYAASSLQSGVPSRFSGSGSGTDFTLTISSLQPEDFATYYCQQYGRNPPTFGQGTKLEIKRTVAAPSVFIFPPSDEQLKSGTASVVCYLNNFYPREAKVQWKVDNALQSGNSQESVTEQDSKDSTYSLWSTLTLSKADYEKHKVYACEVTHQGLSSPVTKSFNRGEC
heavy 2: EVQLLESGGGLVQPGGSLRLSCAASGFTFGDHAMSWVREAPGKGLEWVSAISGYGHSTGYADSVKGRFTISRDNSKNTLYLQMNSLRAEDTAVYYCARNHYRVGLDYWGQGTLVTVSSASTKGPSVFPLAPSSKSTSGGTAALGCLVKDYFPEPVTVSWNSGALTSGVHTFPAVLQSSGLYSLTSVVEVPSSSLGTQTYICNVNHKPSNTKVDKKVEPKSC
notes: Optimised RUBY format, CD40xCEACAM5
As for B1, in assay [1], the “EC50 (read off the curve)” value is about 3 nM. In assay [2], the dissociation constant (Kd) is under 1 pM, the koff was under 1e-07 s⁻¹ and the kon is 24000 M⁻¹ s⁻¹.

B2: Multi49 (bispecific antibody)
heavy 1: not shown
light: DIQMTQSPSSLSASVGDRVTITCRASQSISSYLNWYQEKPGKAPKLLIYAASSLQSGVPSRFSGSGSGTDFTLTISSLQPEDFATYYCQQYGRNPPTFGQGTKLEIKRTVAAPSVFIFPPSDEQLKSGTASVVCYLNNFYPREAKVQWKVDNALQSGNSQESVTEQDSKDSTYSLWSTLTLSKADYEKHKVYACEVTHQGLSSPVTKSFNRGEC
heavy 2: EVQLLESGGGLVQPGGSLRLSCAASGFTFYDHAMSWVREAPGKGLEWVSAISGSYGSTGYADSVKGRFTISRDNSKNTLYLQMNSLRAEDTAVYYCARWGGWAGDIDYWGQGTLVTVSSASTKGPSVFPLAPSSKSTSGGTAALGCLVKDYFPEPVTVSWNSGALTSGVHTFPAVLQSSGLYSLTSVVEVPSSSLGTQTYICNVNHKPSNTKVDKKVEPKSC
notes: as for B1
As to B2, the “EC50 (read off the curve)” value in assay [1] is about 3 nM. Moreover, in assay [2], the Kd was under 1 pM, the koff was under 1e-07 s⁻¹ and the kon came to 28000 M⁻¹ s⁻¹.

B3: Multi38 (bispecific antibody)
heavy 1: not shown
light: not shown
heavy 2: EVQLLESGGGLVQPGGSLRLSCAASGFTFGDHAMSWVREAPGKGLEWVSAISGYGHSTGYADSVKGRFTISRDNSKNTLYLQMNSLRAEDTAVYYCARNHYRVGLDYWGQGTLVTVSSASTKGPSVFPLAPSSKSTSGGTAALGCLVKDYFPEPVTVSWNSGALTSGVHTFPAVLQSSGLYSLTSVVEVPSSSLGTQTYICNVNHKPSNTKVDKKVEPKSC
notes: Optimised RUBY format, CD40xCEACAM5 (Fab8); also called Muli38
Regarding B3, the “EC50 (read off the curve)” value in assay [1] is about 2 nM.

B4: AC_05293 (bispecific antibody)
heavy 1: not shown
light: DIQMTQSPSSLSASVGDRVTITCRASQSISSYLNWYQEKPGKAPKLLIYAASSLQSGVPSRFSGSGSGTDFTLTISSLQPEDFATYYCQQYGRNPPTFGQGTKLEIKRTVAAPSVFIFPPSDEQLKSGTASVVCYLNNFYPREAKVQWKVDNALQSGNSQESVTEQDSKDSTYSLWSTLTLSKADYEKHKVYACEVTHQGLSSPVTKSFNRGEC
heavy 2: EVQLLEQSGAELVRPGTSVKISCKASGYAFTNYWLGWVKERPGHGLEWIGDIFPGSGNIHYNEKFKGKATLTADKSSSTAYMQLSSLTFEDSAVYFCARLRNWDEPMDYWGQGTTVTVSSASTKGPSVFPLAPSSKSTSGGTAALGCLVKDYFPEPVTVSWNSGALTSGVHTFPAVLQSSGLYSLSSVVEVPSSSLGTQTYICNVNHKPSNTKVDKKVEPKSC
Consider B4, for which, in assay [3], the Kd came out at 76 nM, the dissociation rate constant (koff) is 0.00062 s⁻¹ and the kon turned out to be 8300 M⁻¹ s⁻¹.

B5: AC_05300 (bispecific antibody)
heavy 1: not shown
light: ELVMTQSPSSLTVTAGEKVTMSCKSSQSLLNSGNQKNYLTWYQEKPGQPPKLLIYWASTRESGVPDRFTGSGSGTDFTLTISSVQAEDLAVYYCQNDYSYPLTFGAGTKLEIKRTVAAPSVFIFPPSDEQLKSGTASVVCYLNNFYPREAKVQWKVDNALQSGNSQESVTEQDSKDSTYSLWSTLTLSKADYEKHKVYACEVTHQGLSSPVTKSFNRGEC
heavy 2: EVQLLESGGGLVQPGGSLRLSCAASGFTFSSYAMSWVREAPGKGLEWVSGIGSYGGGTYYADSVKGRFTISRDNSKNTLYLQMNSLRAEDTAVYYCARYVNFGMDYWGQGTLVTVSSASTKGPSVFPLAPSSKSTSGGTAALGCLVKDYFPEPVTVSWNSGALTSGVHTFPAVLQSSGLYSLSSVVEVPSSSLGTQTYICNVNHKPSNTKVDKKVEPKSC
notes: as AC_05293
With B5, in assay [3], the Kd was 8.5 nM, the koff was 0.0046 s⁻¹ and the association rate constant (kon) came out at 540000 M⁻¹ s⁻¹.

B6: AC_05330 (bispecific antibody)
heavy 1: not shown
light: not shown
heavy 2: EVQLLESGGGLVQPGGSLRLSCAASGFTFSSYAMSWVREAPGKGLEWVSAISGSGGSTYYADSVKGRFTISRDNSKNTLYLQMNSLRAEDTAVYYCARYYGGYYSAWMDYWGQGTLVTVSSASTKGPSVFPLAPSSKSTSGGTAALGCLVKDYFPEPVTVSWNSGALTSGVHTFPAVLQSSGLYSLSSVVEVPSSSLGTQTYICNVNHKPSNTKVDKKVEPKSC
notes: as AC_05293
In assay [3], B6 displayed a Kd of 0.45 nM, a koff of 1.6e-05 s⁻¹ and a kon of 35000 M⁻¹ s⁻¹.

B7: AC_05084 (antibody, V domains shown)
VH: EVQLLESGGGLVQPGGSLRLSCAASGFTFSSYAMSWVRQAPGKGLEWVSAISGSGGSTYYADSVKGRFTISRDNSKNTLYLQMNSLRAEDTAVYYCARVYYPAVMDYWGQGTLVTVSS
VL: DIQMTQSPSSLSASVGDRVTITCRASQSISSYLNWYQQKPGKAPKLLIYAASSLQSGVPSRFSGSGSGTDFTLTISSLQPEDFATYYCQQVDGLFTFGQGTKLEIK
Turning to B7, the binding result in assay [4] and in assay [5] was “no binding (tested: 10 µg/ml)” in each case.

B8: AC_05085 (antibody, V domains shown)
VH: EVQLLESGGGLVQPGGSLRLSCAASGFTFGSYYMYWVRQAPGKGLEWVSSIGGYSGSTYYADSVKGRFTISRDNSKNTLYLQMNSLRAEDTAVYYCARNTPFPGGSGLDYWGQGTLVTVSS
VL: DIQMTQSPSSLSASVGDRVTITCRASQSISSYLNWYQQKPGKAPKLLIYAASSLQSGVPSRFSGSGSGTDFTLTISSLQPEDFATYYCQQAGNPHTFGQGTKLEIK
For B8, the binding result in assay [4] and in assay [5] was “no binding (tested: 10 µg/ml)” throughout.

The values are drawn from patent publication US20260146107A1 (ALLIGATOR BIOSCIENCE, published 2026).
